In the supplement of paper PMC11246515:
± gives the standard deviation of the averaged measurements.

Test: total protein half-life in vivo (active degradation + dilution); higher = more stable protein
[1] = E. coli NCM3722 delta-clpP delta-lon delta-hslV, growth: N-lim chemostat, doubling time 6 h
[2] = E. coli NCM3722 delta-clpP, growth: N-lim chemostat, doubling time 6 h
[3] = E. coli NCM3722 delta-hslV, growth: N-lim chemostat, doubling time 6 h
[4] = E. coli NCM3722 delta-lon, growth: N-lim chemostat, doubling time 6 h
[5] = E. coli NCM3722 delta-smpB, growth: N-lim chemostat, doubling time 6 h
[6] = wild type E. coli NCM3722, growth: C-lim chemostat, doubling time 3 h
[7] = wild type E. coli NCM3722, growth: C-lim chemostat, doubling time 12 h
[8] = wild type E. coli NCM3722, growth: N-lim chemostat, doubling time 6 h
[9] = wild type E. coli NCM3722, growth: N-lim chemostat, doubling time 12 h
[10] = wild type E. coli NCM3722, growth: P-lim chemostat, doubling time 6 h
[11] = wild type E. coli NCM3722, growth: P-lim chemostat, doubling time 12 h
[12] = wild type E. coli NCM3722, growth: C-lim chemostat, doubling time 6 h

| Sequence | total protein half-life in vivo [1] [h] | total protein half-life in vivo [2] [h] | total protein half-life in vivo [3] [h] | total protein half-life in vivo [4] [h] | total protein half-life in vivo [5] [h] | total protein half-life in vivo [6] [h] | total protein half-life in vivo [7] [h] | total protein half-life in vivo [8] [h] | total protein half-life in vivo [9] [h] | total protein half-life in vivo [10] [h] | total protein half-life in vivo [11] [h] | total protein half-life in vivo [12] [h] |
| --- | --- | --- | --- | --- | --- | --- | --- | --- | --- | --- | --- | --- |
| MPRLLTKRGCWITLAAAPFLLFLAAWGADKLWPLPLHEVNPARVVVAQDGTPLWRFADADGIWRYPVTIEDVSPRYLEALINYEDRWFWKHPGVNPFSVARAAWQDLTSGRVISGGSTLTMQVARLLDPHPKTFGGKIRQLWRALQLEWHLSKREILTLYLNRAPFGGTLQGIGAASWAYLGKSPANLSYSEAAMLAVLPQAPSRLRPDRWPERAEAARNKVLERMAVQGVWSREQVKESREEPIWLAPRQMPQLAPLFSRMMLGKSKSDKITTTLDAGLQRRLEELAQNWKGRLPPRSSLAMIVVDHTDMRVRGWVGSVDLNDDSRFGHVDMVNSIRSPGSVLKPFVYGLALDEGLIHPASLLQDVPRRTGDYRPGNFDSGFHGPISMSEALVRSLNLPAVQVLEAYGPKRFAAKLRNVGLPLYLPNGAAPNLSLILGGAGAKLEDMAAAYTAFARHGKAGKLRLQPDDPLLERPLMSSGAAWIIRRIMADEAQPLPDSALPRVAPLAWKTGTSYGYRDAWAIGVNARYVIGIWTGRPDGTPVVGQFGFASAVPLLNQVNNILLSRSANLPEDPRPNSVTRGVICWPGGQSLPEGDGNCRRRLATWLLDGSQPPTLLLPEQEGINGIRFPIWLDENGKRVAADCPQARQEMINVWPLPLEPWLPASERRAVRLPPASTSCPPYGHDAQLPLQLTGVRDGAIIKRLPGAAEATLPLQSSGGAGERWWFLNGEPLTERGRNVTLHLTDKGDYQLLVMDDVGQIATVKFVMQ | 5.44 | 6.31 ± 1.1 | 5.74 ± 0.091 | 5.64 ± 0.55 | 4.87 ± 1.3 | 3.04 | 11.2 | 5.98 | 13.92 ± 0.086 | 6.15 ± 2 | 9.01 ± 4 | – |
| MPSTPEEKKKVLTRVRRIRGQIDALERSLEGDAECRAILQQIAAVRGAANGLMAEVLESHIRETFDRNDCYSREVSQSVDDTIELVRAYLK [P0AAP3] | 6.53 ± 0.38 | 5.29 ± 0.36 | 4.99 ± 0.14 | > 8 | 3.92 ± 0.13 | 2.5 ± 0.24 | 8.3 ± 1.8 | 4.16 ± 0.36 | 7.59 | 4.67 ± 1.9 | 8.57 ± 0.52 | 5.52 ± 0.22 |
| MPTKPPYPREAYIVTIEKGKPGQTVTWYQLRADHPKPDSLISEHPTAQEAMDAKKRYEDPDKE [P0AAN5] | – | 5.03 ± 0.57 | 5.08 ± 0.48 | 5.38 ± 1.4 | 4.72 ± 0.16 | 3.69 | 7.61 | 4.1 ± 0.042 | 8.6 ± 1.8 | 5.3 | 9.63 ± 1.6 | 3.08 |
| MPTSHENALQQRCQQIVTSPVLSPEQKRHFLALEAENNLPYPQLPAEARRALDEGVICDMFEGHAPYKPRYVLPDYARFLANGSEWLELEGAKDLDDALSLLTILYHHVPSVTSMPVYLGQLDALLQPYVRILTQDEIDVRIKRFWRYLDRTLPDAFMHANIGPSDSPITRAILRADAELKQVSPNLTFIYDPEITPDDLLLEVAKNICECSKPHIANGPVHDKIFTKGGYGIVSCYNSLPLAGGGSTLVRLNLKAIAERSESLDDFFTRTLPHYCQQQIAIIDARCEFLYQQSHFFENSFLVKEGLINPERFVPMFGMYGLAEAVNLLCEKEGIAARYGKEAAANEVGYRISAQLAEFVANTPVKYGWQKRAMLHAQSGISSDIGTTPGARLPYGDEPDPITHLQTVAPHHAYYYSGISDILTLDETIKRNPQALVQLCLGAFKAGMREFTANVSGNDLVRVTGYMVRLSDLEKYRAEGSRTNTTWLGEEAARNTRILERQPRVISHEQQMRFSQ | 4.57 | – | – | 3.47 | – | 2.7 | 6.17 | – | – | 3.51 | 5.66 | 3.94 |
| MPVITLPDGSQRHYDHAVSPMDVALDIGPGLAKACIAGRVNGELVDACDLIENDAQLSIITAKDEEGLEIIRHSCAHLLGHAIKQLWPHTKMAIGPVIDNGFYYDVDLDRTLTQEDVEALEKRMHELAEKNYDVIKKKVSWHEARETFANRGESYKVSILDENIAHDDKPGLYFHEEYVDMCRGPHVPNMRFCHHFKLMKTAGAYWRGDSNNKMLQRIYGTAWADKKALNAYLQRLEEAAKRDHRKIGKQLDLYHMQEEAPGMVFWHNDGWTIFRELEVFVRSKLKEYQYQEVKGPFMMDRVLWEKTGHWDNYKDAMFTTSSENREYCIKPMNCPGHVQIFNQGLKSYRDLPLRMAEFGSCHRNEPSGSLHGLMRVRGFTQDDAHIFCTEEQIRDEVNGCIRLVYDMYSTFGFEKIVVKLSTRPEKRIGSDEMWDRAEADLAVALEENNIPFEYQLGEGAFYGPKIEFTLYDCLDRAWQCGTVQLDFSLPSRLSASYVGEDNERKVPVMIHRAILGSMERFIGILTEEFAGFFPTWLAPVQVVIMNITDSQSEYVNELTQKLSNAGIRVKADLRNEKIGFKIREHTLRRVPYMLVCGDKEVESGKVAVRTRRGKDLGSMDVNEVIEKLQQEIRSRSLKQLEE [P0A8M3] | 5.73 ± 0.81 | 5.78 ± 1.1 | 5.411 ± 0.034 | 6.36 ± 0.29 | 5.34 ± 0.06 | 3.18 ± 0.052 | 11.3 ± 0.88 | 5.35 ± 0.11 | 9.648 ± 0.077 | 5.99 ± 0.14 | 13.3 ± 0.97 | 6.43 ± 0.58 |
| MPYDSVYSEKRPPGTLRTAWRKFYSDASAMVGLYGCAGLAVLCIFGGWFAPYGIDQQFLGYQLLPPSWSRYGEVSFFLGTDDLGRDVLSRLLSGAAPTVGGAFVVTLAATICGLVLGTFAGATHGLRSAVLNHILDTLLAIPSLLLAIIVVAFAGPSLSHAMFAVWLALLPRMVRSIYSMVHDELEKEYVIAARLDGASTLNILWFAVMPNITAGLVTEITRALSMAILDIAALGFLDLGAQLPSPEWGAMLGDALELIYVAPWTVMLPGAAIMISVLLVNLLGDGVRRAIIAGVE [P0AGH5] | 6.49 | 6.66 | – | – | – | 3.28 ± 0.12 | 11.5 | 6.2 ± 0.26 | 12.8 | 5.92 | 13.7 | – |
| MPYLLEMKNITKTFGSVKAIDNVCLRLNAGEIVSLCGENGSGKSTLMKVLCGIYPHGSYEGEIIFAGEEIQASHIRDTERKGIAIIHQELALVKELTVLENIFLGNEITHNGIMDYDLMTLRCQKLLAQVSLSISPDTRVGDLGLGQQQLVEIAKALNKQVRLLILDEPTASLTEQETSILLDIIRDLQQHGIACIYISHKLNEVKAISDTICVIRDGQHIGTRDAAGMSEDDIITMMVGRELTALYPNEPHTTGDEILRIEHLTAWHPVNRHIKRVNDVSFSLKRGEILGIAGLVGAGRTETIQCLFGVWPGQWEGKIYIDGKQVDIRNCQQAIAQGIAMVPEDRKRDGIVPVMAVGKNITLAALNKFTGGISQLDDAAEQKCILESIQQLKVKTSSPDLAIGRLSGGNQQKAILARCLLLNPRILILDEPTRGIDIGAKYEIYKLINQLVQQGIAVIVISSELPEVLGLSDRVLVMHEGKLKANLINHNLTQEQVMEAALRSEHHVEKQSV | – | – | – | – | – | 2.9 ± 0.53 | 7.37 ± 2.8 | – | – | – | 9.14 | – |
| MQAEILLTLKLQQKLFADPRRISLLKHIALSGSISQGAKDAGISYKSAWDAINEMNQLSEHILVERATGGKGGGGAVLTRYGQRLIQLYDLLAQIQQKAFDVLSDDDALPLNSLLAAISRFSLQTSARNQWFGTITARDHDDVQQHVDVLLADGKTRLKVAITAQSGARLGLDEGKEVLILLKAPWVGITQDEAVAQNADNQLPGIISHIERGAEQCEVLMALPDGQTLCATVPVNEATSLQQGQNVTAYFNADSVIIATLC [P0A9G8] | 5.338 ± 0.023 | 5.85 ± 0.37 | 6.82 ± 1.4 | 6.41 ± 0.61 | 5.84 ± 0.2 | 3.04 ± 0.29 | 12.7 ± 0.41 | 5.703 ± 0.02 | 11.88 ± 0.075 | 6.2 ± 0.59 | 12.13 ± 0.038 | 6.38 ± 0.15 |
| MQALLLEQQDGKTLASVQTLDESRLPEGDVTVDVHWSSLNYKDALAITGKGKIIRNFPMIPGIDFAGTVRTSEDPRFHAGQEVLLTGWGVGENHWGGLAEQARVKGDWLVAMPQGLDARKAMIIGTAGFTAMLCVMALEDAGVRPQDGEIVVTGASGGVGSTAVALLHKLGYQVVAVSGRESTHEYLKSLGASRVLPRDEFAESRPLEKQVWAGAIDTVGDKVLAKVLAQMNYGGCVAACGLAGGFTLPTTVMPFILRNVRLQGVDSVMTPPERRAQAWQRLVADLPESFYTQAAKEISLSEAPNFAEAIINNQIQGRTLVKVN | 5.18 ± 0.35 | 5.271 ± 0.034 | 5.7 ± 1.2 | 5.67 ± 0.37 | 4.6639 ± 0.0045 | 3.03 ± 0.091 | 10.63 ± 0.024 | 5.25 ± 0.21 | 9.06 ± 0.27 | 6.5 ± 0.39 | 13 ± 0.96 | – |
| MQARVKWVEGLTFLGESASGHQILMDGNSGDKAPSPMEMVLMAAGGCSAIDVVSILQKGRQDVVDCEVKLTSERREEAPRLFTHINLHFIVTGRDLKDAAVARAVDLSAEKYCSVALMLEKAVNITHSYEVVAA [P0ADX1] | 5.2 ± 0.18 | 5.55 ± 1.8 | 4.69 ± 0.32 | 5.8 ± 1.1 | 5.32 ± 0.37 | > 4 | 10.8 ± 3.3 | 4.88 ± 0.78 | 8.73 ± 0.8 | 5.45 ± 0.51 | – | 6.49 ± 0.41 |
